B1: POU domain, class 3, transcription factor 2, residues 262 to 338; numbered along this chain, P20265 (parent)
chain: EDTPTSDDLEQFAKQFKQRRIKLGFTQADVGLALGTLYGNVFSQTTICRFEALQLSFKNMCKLKPLLNKWLEEADSS

± gives the uncertainty stated by the source.

In this data set the parent is B1. Kind of data set: abundance fitness (aPCA) (normalised: wild type 0, dead -1); higher = more abundant; growth selection in yeast, the domain comes from the species named. Conditions: Homo sapiens.
On to F42T, for which the abundance fitness is -0.061 ± 0.042. With V41E, the abundance fitness came out at 0.034 ± 0.038. In the case of V41N, the abundance fitness came to 0.008 ± 0.079. V41M: the abundance fitness was 0.012 ± 0.068. The same measure for V41C: 0.036 ± 0.065; for V41W: 0.004 ± 0.045. On to V41T, for which the abundance fitness stood at 0.009 ± 0.053. With L71G, the abundance fitness was -0.445 ± 0.088. For the variant L71K, the abundance fitness was -0.559 ± 0.2. For the variant L71I, the abundance fitness is -0.422 ± 0.37. Consider L71W, for which the abundance fitness is -0.465 ± 0.12. Take L71M: the abundance fitness is 0.067 ± 0.12. Take L71F: the abundance fitness is -0.699 ± 0.22.

In the case of L71V, the abundance fitness was -0.089 ± 0.12. For K64N, the abundance fitness is -0.944 ± 0.26.

Regarding K64L, the abundance fitness was -0.131 ± 0.037. Take K64H: the abundance fitness was -0.051 ± 0.074. The same measure for K64P: -0.931 ± 0.19; for K64W: -0.199 ± 0.04. For A13E, the abundance fitness is -0.645 ± 0.11. In the case of A13Y, the abundance fitness was -0.845 ± 0.17.

For A13G, the abundance fitness is -0.605 ± 0.051.

For A13D, the abundance fitness was -0.865 ± 0.14.

Regarding A13C, the abundance fitness was -0.156 ± 0.048. The same measure for L53P: -0.961 ± 0.28; for L53V: -0.009 ± 0.031.

For L53A, the abundance fitness is 0.016 ± 0.034. Regarding L53Q, the abundance fitness was -0.034 ± 0.049. As to L53N, the abundance fitness is -0.022 ± 0.11. Regarding G39S, the abundance fitness was -0.321 ± 0.04. With G39I, the abundance fitness was -0.808 ± 0.21. Consider G39D, for which the abundance fitness was -0.079 ± 0.053. With G39H, the abundance fitness was -0.19 ± 0.074.

For G39F, the abundance fitness is -0.621 ± 0.13. As to L63G, the abundance fitness is -0.796 ± 0.041. In the case of L63C, the abundance fitness was -0.399 ± 0.05.

As for L63K, the abundance fitness is -0.749 ± 0.14. Take L63A: the abundance fitness was -0.665 ± 0.051. As to L63V, the abundance fitness was -0.263 ± 0.029.

For the variant L63T, the abundance fitness is -0.524 ± 0.061. On to E51I, for which the abundance fitness was -0.503 ± 0.14. In the case of E51N, the abundance fitness was -0.886 ± 0.29. As for E51G, the figure is -0.818 ± 0.058. Turning to E51S, the abundance fitness is -0.88 ± 0.096.

Regarding E1C, the abundance fitness is -0.035 ± 0.15. Take E1L: the abundance fitness is -0.109 ± 0.065. As for E1D, the figure is -0.014 ± 0.089.

Regarding E1N, the abundance fitness amounted to 0.124 ± 0.21. Take I21P: the abundance fitness was -0.805 ± 0.12. Turning to I21E, the abundance fitness is -0.004 ± 0.037. The same measure for I21Q: 0.005 ± 0.04; for I21M: 0.01 ± 0.039; for I21K: -0.112 ± 0.058.

On to I21D, for which the abundance fitness was -0.567 ± 0.094.

Turning to Q15D, the abundance fitness is -0.008 ± 0.068. As to Q15F, the abundance fitness is -0.187 ± 0.13.

As to Q15N, the abundance fitness was found to be 0.063 ± 0.11. Regarding Q15Y, the abundance fitness stood at 0.092 ± 0.076. The same measure for Q15I: -0.068 ± 0.15. The same measure for Q15H: 0.042 ± 0.1.

Consider Q15G, for which the abundance fitness is -0.141 ± 0.027.

Take L67F: the abundance fitness was -0.399 ± 0.2. With L67E, the abundance fitness is -0.936 ± 0.27.

In the case of L67P, the abundance fitness is -0.654 ± 0.16. The same measure for L67M: 0.006 ± 0.085; for A28K: 0.067 ± 0.056.

Turning to A28Q, the abundance fitness is -0.094 ± 0.044. For A28R, the abundance fitness was -0.058 ± 0.028. For the variant A28V, the abundance fitness is -0.204 ± 0.033.

With L55A, the abundance fitness was -0.567 ± 0.048. On to L55S, for which the abundance fitness was -0.504 ± 0.045. Turning to L55K, the abundance fitness is -0.409 ± 0.066. The same measure for L55N: -0.633 ± 0.16; for L55V: -0.573 ± 0.039; for L55I: -0.364 ± 0.099.

L55E: the abundance fitness is -0.298 ± 0.037. With L55P, the abundance fitness was -0.586 ± 0.099. As for P4A, the abundance fitness is -0.03 ± 0.036.

Turning to P4Y, the abundance fitness is -0.102 ± 0.12. P4V: the abundance fitness came to 0.061 ± 0.034. In the case of Q27A, the abundance fitness was -0.071 ± 0.032. Take Q27C: the abundance fitness was 0.045 ± 0.054. With Q27S, the abundance fitness is -0.125 ± 0.035.

Regarding Q27E, the abundance fitness is -0.004 ± 0.039. Turning to F50R, the abundance fitness was -0.886 ± 0.055.

As to F50M, the abundance fitness is -0.485 ± 0.063. With F50E, the abundance fitness was -0.85 ± 0.091. For the variant F50Q, the abundance fitness is -0.624 ± 0.079. Turning to F50P, the abundance fitness was -0.756 ± 0.085. On to F50W, for which the abundance fitness is -0.749 ± 0.067. As for N40M, the figure is -0.107 ± 0.051.

Take N40P: the abundance fitness is -0.005 ± 0.046.

Turning to N40R, the abundance fitness was found to be 0.023 ± 0.035. As to N40I, the abundance fitness is -0.045 ± 0.096. As to L66I, the abundance fitness is -0.071 ± 0.063. On to L66G, for which the abundance fitness was -0.536 ± 0.037. As to L66M, the abundance fitness is -0.015 ± 0.042. Take L66F: the abundance fitness was -0.05 ± 0.048. As for L66D, the abundance fitness is -0.767 ± 0.23. For L66V, the abundance fitness is -0.077 ± 0.03.

N59H: the abundance fitness came to 0.017 ± 0.065. Regarding N59C, the abundance fitness is -0.042 ± 0.056. For N59T, the abundance fitness was -0.051 ± 0.043. On to N59W, for which the abundance fitness was -0.074 ± 0.04. S43C: the abundance fitness is -0.042 ± 0.05.

On to S43M, for which the abundance fitness was -0.569 ± 0.071. Take S43L: the abundance fitness is -0.485 ± 0.049.

On to S43P, for which the abundance fitness is -0.102 ± 0.041. With S43G, the abundance fitness is -0.12 ± 0.028. Turning to S43R, the abundance fitness was -0.206 ± 0.031. Turning to R20F, the abundance fitness was -1.03 ± 0.41. For the variant R20H, the abundance fitness is -1.02 ± 0.3. On to R20L, for which the abundance fitness was -0.766 ± 0.066. As for R20W, the abundance fitness was -0.909 ± 0.096. In the case of R49G, the abundance fitness was -0.242 ± 0.027. In the case of R49H, the abundance fitness is -0.314 ± 0.09.

For A74M, the abundance fitness was -0.088 ± 0.049. Consider I47S, for which the abundance fitness is -0.782 ± 0.081. As for I47A, the figure is -0.751 ± 0.068; as for I47Y, -0.339 ± 0.13; as for I47R, -0.689 ± 0.05. As for I47M, the abundance fitness was -0.58 ± 0.065. Regarding I47D, the abundance fitness was -0.786 ± 0.11. Consider I47G, for which the abundance fitness is -1 ± 0.06.

With I47F, the abundance fitness is -0.787 ± 0.2. Regarding I47C, the abundance fitness was -0.763 ± 0.097. With W70S, the abundance fitness is -0.742 ± 0.065. As for W70E, the figure is -0.742 ± 0.077; as for W70D, -0.431 ± 0.15; as for W70G, -0.754 ± 0.041. For W70N, the abundance fitness is -0.358 ± 0.18. Consider W70M, for which the abundance fitness is -0.669 ± 0.084.

On to W70F, for which the abundance fitness was -0.111 ± 0.068. On to R19W, for which the abundance fitness is -0.379 ± 0.043. With R19Q, the abundance fitness was -0.113 ± 0.048. As to R19F, the abundance fitness is -0.439 ± 0.09. As for R19A, the figure is -0.057 ± 0.036.

With T36I, the abundance fitness is -0.184 ± 0.093. Consider T36S, for which the abundance fitness is 0.042 ± 0.036. With T36H, the abundance fitness was found to be 0.015 ± 0.059.

T36G: the abundance fitness is -0.079 ± 0.027. As for T36F, the abundance fitness is -0.342 ± 0.11. On to T36C, for which the abundance fitness was -0.156 ± 0.051.

Consider F16G, for which the abundance fitness is -0.818 ± 0.044.

Take F16C: the abundance fitness was -0.765 ± 0.076. Regarding F16E, the abundance fitness was -0.618 ± 0.058. Consider F16M, for which the abundance fitness is -0.606 ± 0.063. Consider F16S, for which the abundance fitness was -0.802 ± 0.059. Consider F16T, for which the abundance fitness is -0.677 ± 0.057.

In the case of F16K, the abundance fitness is -0.633 ± 0.079.

As for S56Q, the abundance fitness was -0.385 ± 0.064. For the variant S56G, the abundance fitness was -0.101 ± 0.03.

Consider S56R, for which the abundance fitness was -0.366 ± 0.034. For S56K, the abundance fitness was -0.129 ± 0.047. S56T: the abundance fitness is -0.135 ± 0.041. As for M60F, the figure is -0.373 ± 0.13. As to M60V, the abundance fitness was -0.553 ± 0.043.

M60D: the abundance fitness was -0.961 ± 0.2. For M60K, the abundance fitness is -0.97 ± 0.18. For the variant M60S, the abundance fitness was -0.377 ± 0.055. As to M60I, the abundance fitness was -0.907 ± 0.29. For A33L, the abundance fitness was -0.304 ± 0.041. Turning to A33Q, the abundance fitness was determined as 0.015 ± 0.042. Regarding A33I, the abundance fitness is -0.138 ± 0.075. Take G35F: the abundance fitness was -0.183 ± 0.054. G35Y: the abundance fitness is -0.155 ± 0.076.

Consider G35I, for which the abundance fitness was -0.367 ± 0.1.
